Experimental data taken from PMC4611711.

Target: truncated Bid (tBid) of cleaved Bid (cBid) 190C labeled with Alexa Fluor 488 (murine) (UniProt P70444)

Kd: 40 nM
Substance: p7 fragment of Bid (from cleaved Bid 190C) (domain or fragment)
